Experimental data published in paper PMC2944802, “CpG-Methylation Regulates a Class of Epstein-Barr Virus Promoters”.

B1: BRLF1 ZRE3 (dsDNA)
DNA 1: CAGTCAAAATTCGCGATGCTATAAA
DNA 2: TTTATAGCATCGCGAATTTTGACTG
B2: BRLF1 meZRE3 (dsDNA)
DNA 1: CAGTCAAAATTCGCGATGCTATAAA
DNA 2: TTTATAGCATCGCGAATTTTGACTG
modifications: 5mC at positions 12 and 14 of strand 1; bottom-strand methylation not shown in material
B3: BBLF4 ZRE B (dsDNA)
DNA 1: CTCTCCTATGAGCGTTATGTGGACT
DNA 2: AGTCCACATAACGCTCATAGGAGAG
B4: oriLyt ZRE5 (dsDNA)
DNA 1: TTGTCACCTTTGCACATTTGGTCAG
DNA 2: CTGACCAAATGTGCAAAGGTGACAA
B5: BHLF1 ZRE2 (dsDNA)
DNA 1: TTTAAGGTTTGCTCAGGAGTGGGG
DNA 2: CCCCACTCCTGAGCAAACCTTAAA
B6: BBLF4 meZRE A (dsDNA)
DNA 1: ATGACTCGTGTGCGAGCCGGTTTCG
DNA 2: CGAAACCGGCTCGCACACGAGTCAT
modifications: 5mC at position 13 of strand 1; bottom-strand methylation not shown in material
B7: BMRF1 ZRE A (dsDNA)
DNA 1: TTGGTGGATGTGCGAGCCATAAAGC
DNA 2: GCTTTATGGCTCGCACATCCACCAA
B8: BMLF1 ZRE AP-1 (dsDNA)
DNA 1: GCGAAGCACTGACTCATGAAGGTGA
DNA 2: TCACCTTCATGAGTCAGTGCTTCGC
B9: BMRF1 meZRE A (dsDNA)
DNA 1: TTGGTGGATGTGCGAGCCATAAAGC
DNA 2: GCTTTATGGCTCGCACATCCACCAA
modifications: 5mC at position 13 of strand 1; bottom-strand methylation not shown in material
B10: BRLF1 ZRE2 (dsDNA)
DNA 1: CTAAGCTTATGAGCGATTTTATCAC
DNA 2: GTGATAAAATCGCTCATAAGCTTAG
B11: BRLF1 meZRE2 (dsDNA)
DNA 1: CTAAGCTTATGAGCGATTTTATCAC
DNA 2: GTGATAAAATCGCTCATAAGCTTAG
modifications: 5mC at position 14 of strand 1; bottom-strand methylation not shown in material
B12: BBLF4 ZRE A (dsDNA)
DNA 1: ATGACTCGTGTGCGAGCCGGTTTCG
DNA 2: CGAAACCGGCTCGCACACGAGTCAT
B13: BBLF4 meZRE B (dsDNA)
DNA 1: CTCTCCTATGAGCGTTATGTGGACT
DNA 2: AGTCCACATAACGCTCATAGGAGAG
modifications: 5mC at position 13 of strand 1; bottom-strand methylation not shown in material

Each binder was assayed against Zta (BZLF1:Strep/FLAG) (Epstein-Barr virus, UniProt P03206 149-245) (assay: EMSA; apparent, Hill fit; […]; pH and temperature not stated). Conditions: protein: recombinant; tags: tandem StrepII/FLAG; chain copies: 2; label: 32P 5' end; blunt.
Sequence of Zta (BZLF1:Strep/FLAG) (P03206 149-245): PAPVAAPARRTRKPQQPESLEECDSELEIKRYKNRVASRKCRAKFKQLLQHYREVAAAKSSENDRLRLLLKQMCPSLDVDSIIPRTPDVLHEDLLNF

Binder | Kd [nM]
B1 | 1190 ± 227
B2 | 135 ± 45
B3 | 484 ± 244
B4 | 37.7 ± 4.3
B5 | 91.6 ± 38.5
B6 | 16.3 ± 2.6
B7 | 328 ± 166
B8 | 40.8 ± 23
B9 | 20.2 ± 12.5
B10 | 113 ± 11.9
B11 | 12.7 ± 8.2
B12 | 219 ± 41
B13 | 18 ± 4.2
